{"source": "IntAct's records for PubMed 14732713", "parents": {"B1": {"name": "Rho-related GTP-binding protein RhoN (Homo sapiens), P52198 (parent)", "chain": "MEGQSGRCKIVVVGDAECGKTALLQVFAKDAYPGSYVPTVFENYTASFEIDKRRIELNMWDTSGSSYYDNVRPLAYPDSDAVLICFDISRPETLDSVLKKWQGETQEFCPNAKVVLVGCKLDMRTDLATLRELSKQRLIPVTHEQGTVLAKQVGAVSYVECSSRSSERSVRDVFHVATVASLGRGHRQLRRTDSRRGMQRSAQLSGRPDRGNEGEIHKDRAKSCNLM", "partner": "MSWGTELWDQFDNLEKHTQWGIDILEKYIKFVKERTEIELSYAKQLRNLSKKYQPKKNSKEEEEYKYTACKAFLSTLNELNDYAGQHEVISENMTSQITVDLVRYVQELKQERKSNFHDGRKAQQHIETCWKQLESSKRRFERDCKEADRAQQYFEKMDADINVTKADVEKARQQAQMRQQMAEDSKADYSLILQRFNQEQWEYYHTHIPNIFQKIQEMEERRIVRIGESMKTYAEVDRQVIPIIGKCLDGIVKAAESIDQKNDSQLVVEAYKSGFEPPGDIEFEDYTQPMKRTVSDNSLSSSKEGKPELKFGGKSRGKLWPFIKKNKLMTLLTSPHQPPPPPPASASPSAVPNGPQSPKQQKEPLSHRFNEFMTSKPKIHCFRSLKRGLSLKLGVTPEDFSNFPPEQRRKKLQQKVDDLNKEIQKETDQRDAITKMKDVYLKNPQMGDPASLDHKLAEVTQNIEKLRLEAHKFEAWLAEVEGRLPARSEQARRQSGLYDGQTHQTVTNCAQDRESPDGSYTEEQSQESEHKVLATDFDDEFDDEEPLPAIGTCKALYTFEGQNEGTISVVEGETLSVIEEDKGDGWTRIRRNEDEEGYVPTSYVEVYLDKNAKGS"}}}
{"variants_of": "B1", "conditions": "with fnbp1_rat Fnbp1, Q8R511"}
{"variant": "A16V", "effect of a mutation on the interaction": "increasing interaction"}
